Measured values: patent US20110300138A1 (published 2011)
One block for each molecule: values may come before it.

Legend:
[1] = target: thyroid stimulating hormone receptor (TSHR), full length human TSHR (human) (UniProt P16473); test: TSH-biotin competition ELISA, TSHR coated wells; 0.01 µg/mL in HBD serum
[2] = target: TSH receptor (TSHR), full length human, coated on tubes (human) (UniProt P16473); test: inhibition of 125I-K1-18 IgG binding to TSHR coated tubes; competitor 125I-K1-18 IgG; sample at 1 µg/mL in HBD serum
[3] = target: TSH receptor (TSHR), full length human, coated on tubes (human) (UniProt P16473); test: inhibition of 125I-TSH binding to TSHR coated tubes; 0.01 µg/mL, diluted in assay buffer
[4] = target: TSHR (full length) coated on tubes (human) (UniProt P16473); test: inhibition of 125I-K1-18 Fab (competitor) binding to TSHR coated tubes; test sample 10 µg/mL in assay buffer
[5] = target: TSHR (thyroid stimulating hormone receptor), full length human (human) (UniProt P16473); test: competitor ^125I-K1-70 IgG, TSHR coated tubes; 0.01 µg/mL in assay buffer
[6] = target: thyroid stimulating hormone receptor (TSHR), full length human TSHR (human) (UniProt P16473); test: TSH-biotin competition ELISA, TSHR coated wells; negative control, 0.01 µg/mL in HBD serum
[7] = target: TSHR (thyroid stimulating hormone receptor), full length human (human) (UniProt P16473); test: negative control; competitor ^125I-K1-70 IgG, TSHR coated tubes; 0.1 µg/mL in HBD
[8] = target: TSH receptor (TSHR), full length human, coated on tubes (human) (UniProt P16473); test: inhibition of 125I-K1-18 IgG binding to TSHR coated tubes; competitor 125I-K1-18 IgG; negative control sample at 100 µg/mL in HBD serum
[9] = target: human thyroid stimulating hormone receptor (TSHR), full length (human) (UniProt P16473); test: 125I-K1-70 Fab (competitor) binding to TSHR coated tubes; negative control MAb 10 µg/mL in assay buffer
[10] = target: thyroid stimulating hormone receptor (TSHR), full length human TSHR (human) (UniProt P16473); test: TSH-biotin competition ELISA, TSHR coated wells; negative control, 0.1 µg/mL in assay buffer
[11] = target: TSH receptor (TSHR), full length human, coated on tubes (human) (UniProt P16473); test: inhibition of 125I-K1-18 IgG binding to TSHR coated tubes; competitor 125I-K1-18 IgG; negative control sample at 0.01 µg/mL in assay buffer
[12] = target: TSH receptor (TSHR), full length human, coated on tubes (human) (UniProt P16473); test: inhibition of 125I-K1-18 IgG binding to TSHR coated tubes; competitor 125I-K1-18 IgG; negative control sample at 100 µg/mL in assay buffer
[13] = target: human thyroid stimulating hormone receptor (TSHR), full length (human) (UniProt P16473); test: 125I-K1-70 Fab (competitor) binding to TSHR coated tubes; negative control MAb 0.1 µg/mL in assay buffer
[14] = target: human TSH receptor (full length) coated on ELISA plate wells (human) (UniProt P16473); test: TSH-biotin binding inhibition ELISA, TSHR coated wells; 1 µg/mL in assay buffer; negative control MAb
[15] = target: human TSH receptor (full length) coated on ELISA plate wells (human) (UniProt P16473); test: TSH-biotin binding inhibition ELISA, TSHR coated wells; 0.1 µg/mL in assay buffer; negative control MAb
[16] = target: TSH receptor (full length human TSHR) (human) (UniProt P16473); test: competition ELISA: inhibition of M22 Fab-peroxidase (competitor) binding to TSHR coated wells; negative control at 100 µg/mL diluted in HBD serum pool
[17] = target: human thyroid stimulating hormone receptor (TSHR), full length (human) (UniProt P16473); test: 125I-K1-18 Fab competition, TSHR coated tubes; 1 µg/mL in assay buffer
[18] = target: TSH receptor (TSHR), full length human, coated on tubes (human) (UniProt P16473); test: inhibition of 125I-TSH binding to TSHR coated tubes; 0.1 µg/mL, diluted in HBD serum pool
[19] = target: human thyroid stimulating hormone receptor (TSHR), full length (human) (UniProt P16473); test: 125I-K1-18 Fab competition, TSHR coated tubes; 10 µg/mL in assay buffer
[20] = target: thyroid stimulating hormone receptor (full length human TSHR) (human) (UniProt P16473); test: ELISA: inhibition of M22 Fab-peroxidase (competitor) binding to TSHR coated wells; 1 µg/mL, diluted in assay buffer
[21] = target: TSH receptor (TSHR), full length human, coated on tubes (human) (UniProt P16473); test: inhibition of 125I-TSH binding to TSHR coated tubes; 100 µg/mL, diluted in HBD serum pool
[22] = target: human TSH receptor (full length) coated on ELISA plate wells (human) (UniProt P16473); test: TSH-biotin binding inhibition ELISA, TSHR coated wells; 0.01 µg/mL in assay buffer
[23] = target: human thyroid stimulating hormone receptor (TSHR), full length (human) (UniProt P16473); test: 125I-K1-18 Fab competition, TSHR coated tubes; 10 µg/mL in HBD
[24] = target: TSH receptor (TSHR), full length human, coated on tubes (human) (UniProt P16473); test: inhibition of 125I-TSH binding to TSHR coated tubes; 0.01 µg/mL, diluted in HBD serum pool
[25] = target: TSH receptor (TSHR), full length human, coated on tubes (human) (UniProt P16473); test: inhibition of 125I-TSH binding to TSHR coated tubes; 100 µg/mL, diluted in assay buffer
[26] = target: thyroid stimulating hormone receptor (full length human TSHR) (human) (UniProt P16473); test: ELISA, inhibition of TSH-biotin binding to TSHR coated wells; 0.1 µg/mL, diluted in HBD serum pool
[27] = target: human TSH receptor (full length) coated on ELISA plate wells (human) (UniProt P16473); test: TSH-biotin binding inhibition ELISA, TSHR coated wells; 100 µg/mL in HBD serum pool

Inhibition of binding (%) [1]: 10.1% | Inhibition of binding (%) [2]: 62.1% | Inhibition of binding (%) [3]: 15.8% | Inhibition of binding (%) [4]: 69.5% | Inhibition of binding (%) [5]: 9.4%
Molecule: 9D33 IgG (antibody)

Inhibition of binding (%) [6]: -5.1% | Inhibition of binding (%) [7]: -3.6% | Inhibition of binding (%) [8]: 29.4% | Inhibition of binding (%) [9]: -2.1% | Inhibition of binding (%) [10]: -7.8% | Inhibition of binding (%) [11]: -4.2% | Inhibition of binding (%) [12]: 6.7% | Inhibition of binding (%) [13]: 2.2% | % inhibition of TSH-biotin binding [14]: -1% | % inhibition of TSH-biotin binding [15]: -2% | Inhibition of binding (%) [16]: 3.8%
Molecule: 5B3 IgG (antibody)

Inhibition of binding (%) [17]: 52.5% | Inhibition of binding (%) [18]: 7% | Inhibition of binding (%) [19]: 63.8% | Inhibition of binding (%) [20]: 12.1% | Inhibition of binding (%) [21]: 59.2% | % inhibition of TSH-biotin binding [22]: 16.1% | Inhibition of binding (%) [23]: 49.8% | Inhibition of binding (%) [24]: -5.5% | Inhibition of binding (%) [25]: 92.5% | Inhibition of binding (%) [26]: 10.4% | % inhibition of TSH-biotin binding [27]: 48.6%
B1: 5C9 IgG (antibody, from another filing, V domains shown)
VH: EVQLVESGGGLIQPGGSLRLSCAASGFTVSSNYMSWVRQAPGKGLEWVSVTYSGGSTSYADSVKGRFTISRDNSKNTLYLQMNSLRAEDTAVYYCARGGRYCSSISCYARSGCDYWGQGTLVTVSS
VL: AIQMTQSPSSLSASVGDRVTITCRASQSISNYLNWYQQKPGKAPKLLIYAASSLQSGVPSRFSGSGSGTDFTLTISSLQPEDFATYYCQQSYSSPSTTFGQGTKLEIK
